Experiments:
cMet-Fc fusion protein = cMet-Fc fusion protein (Homo sapiens, UniProt P08581); assay: Protein phage ELISA: peptide-displaying phage binding to soluble cMet-Fc versus TRAIL-Fc; conditions: phage isolate; cMet-Fc vs. TRAIL-Fc
Summary of the method: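 Plates coated with 0.5 μg/mL cMet-Fc or, as background, TRAIL-Fc, then blocked with 3% BSA in PBST. Peptide-displaying phage bound 2 h at room temperature. Detection with HRP-anti-M13 antibody.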

[1] = molecular target: T1, 3T3 cells that over-express human cMet (Homo sapiens, UniProt P08581); assay: Whole cell ELISA of peptide-displaying phage; assay type: cell-based; conditions: phage isolate; 3T3 cells expressing human cMet vs. non-expressing 3T3 cells
T1 construct: expressed in transfected cells; host or cells: 3T3 cells
T1 sequence (P08581 25-1390): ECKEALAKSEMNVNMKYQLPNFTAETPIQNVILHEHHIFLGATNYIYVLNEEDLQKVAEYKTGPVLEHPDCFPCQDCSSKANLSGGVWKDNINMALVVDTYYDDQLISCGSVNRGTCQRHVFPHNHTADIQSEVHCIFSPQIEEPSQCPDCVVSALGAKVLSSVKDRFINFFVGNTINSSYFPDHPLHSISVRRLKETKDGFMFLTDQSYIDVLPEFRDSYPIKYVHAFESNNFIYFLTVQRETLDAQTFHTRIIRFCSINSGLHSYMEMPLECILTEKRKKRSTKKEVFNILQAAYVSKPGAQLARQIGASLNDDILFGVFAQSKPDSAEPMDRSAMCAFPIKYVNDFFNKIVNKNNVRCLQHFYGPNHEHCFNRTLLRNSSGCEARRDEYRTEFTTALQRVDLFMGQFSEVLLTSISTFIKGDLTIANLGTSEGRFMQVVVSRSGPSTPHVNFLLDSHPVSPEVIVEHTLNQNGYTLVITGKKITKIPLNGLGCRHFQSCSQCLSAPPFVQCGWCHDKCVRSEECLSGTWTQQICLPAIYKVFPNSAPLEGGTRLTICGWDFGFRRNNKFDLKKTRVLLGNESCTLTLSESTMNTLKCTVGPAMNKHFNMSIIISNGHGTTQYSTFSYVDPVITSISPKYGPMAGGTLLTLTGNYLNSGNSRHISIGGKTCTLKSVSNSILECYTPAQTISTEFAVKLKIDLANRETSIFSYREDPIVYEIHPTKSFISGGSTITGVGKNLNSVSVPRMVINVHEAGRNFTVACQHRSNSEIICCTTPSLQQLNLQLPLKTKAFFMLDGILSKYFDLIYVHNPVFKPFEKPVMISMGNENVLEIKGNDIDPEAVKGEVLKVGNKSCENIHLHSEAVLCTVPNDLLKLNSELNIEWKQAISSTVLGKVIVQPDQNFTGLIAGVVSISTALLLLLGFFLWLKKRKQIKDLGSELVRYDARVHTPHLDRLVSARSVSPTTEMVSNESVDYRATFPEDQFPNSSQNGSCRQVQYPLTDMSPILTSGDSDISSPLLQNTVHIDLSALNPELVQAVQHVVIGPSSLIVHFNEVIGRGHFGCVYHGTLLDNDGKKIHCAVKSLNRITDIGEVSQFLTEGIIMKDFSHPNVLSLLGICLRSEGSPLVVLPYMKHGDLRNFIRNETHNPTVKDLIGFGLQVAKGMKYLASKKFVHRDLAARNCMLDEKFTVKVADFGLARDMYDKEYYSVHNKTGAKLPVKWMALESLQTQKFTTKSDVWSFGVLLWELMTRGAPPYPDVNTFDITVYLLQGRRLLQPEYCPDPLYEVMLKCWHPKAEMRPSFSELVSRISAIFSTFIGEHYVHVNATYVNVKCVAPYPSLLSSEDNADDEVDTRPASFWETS
Summary of the method: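 3T3 cells over-expressing human cMet seeded 10^5/well, pelleted and fixed with 0.1% glutaraldehyde 12 min at 37 °C. Blocked peptide-displaying phage bound 1 h at room temperature; after PBST wash, bound phage detected with HRP-conjugated anti-M13 antibody.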

Chain of cMet-Fc fusion protein (P08581 25-307 limits assumed): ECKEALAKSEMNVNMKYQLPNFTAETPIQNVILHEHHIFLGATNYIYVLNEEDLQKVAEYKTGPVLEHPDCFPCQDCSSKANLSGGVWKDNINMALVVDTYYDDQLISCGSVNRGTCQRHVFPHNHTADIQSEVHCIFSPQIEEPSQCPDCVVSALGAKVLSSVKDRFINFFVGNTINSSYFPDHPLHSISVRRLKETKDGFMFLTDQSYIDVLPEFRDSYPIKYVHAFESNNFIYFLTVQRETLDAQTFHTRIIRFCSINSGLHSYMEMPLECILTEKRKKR
Chain of cMet-Fc fusion protein (P08581 with tags, fused parts or gaps limits assumed): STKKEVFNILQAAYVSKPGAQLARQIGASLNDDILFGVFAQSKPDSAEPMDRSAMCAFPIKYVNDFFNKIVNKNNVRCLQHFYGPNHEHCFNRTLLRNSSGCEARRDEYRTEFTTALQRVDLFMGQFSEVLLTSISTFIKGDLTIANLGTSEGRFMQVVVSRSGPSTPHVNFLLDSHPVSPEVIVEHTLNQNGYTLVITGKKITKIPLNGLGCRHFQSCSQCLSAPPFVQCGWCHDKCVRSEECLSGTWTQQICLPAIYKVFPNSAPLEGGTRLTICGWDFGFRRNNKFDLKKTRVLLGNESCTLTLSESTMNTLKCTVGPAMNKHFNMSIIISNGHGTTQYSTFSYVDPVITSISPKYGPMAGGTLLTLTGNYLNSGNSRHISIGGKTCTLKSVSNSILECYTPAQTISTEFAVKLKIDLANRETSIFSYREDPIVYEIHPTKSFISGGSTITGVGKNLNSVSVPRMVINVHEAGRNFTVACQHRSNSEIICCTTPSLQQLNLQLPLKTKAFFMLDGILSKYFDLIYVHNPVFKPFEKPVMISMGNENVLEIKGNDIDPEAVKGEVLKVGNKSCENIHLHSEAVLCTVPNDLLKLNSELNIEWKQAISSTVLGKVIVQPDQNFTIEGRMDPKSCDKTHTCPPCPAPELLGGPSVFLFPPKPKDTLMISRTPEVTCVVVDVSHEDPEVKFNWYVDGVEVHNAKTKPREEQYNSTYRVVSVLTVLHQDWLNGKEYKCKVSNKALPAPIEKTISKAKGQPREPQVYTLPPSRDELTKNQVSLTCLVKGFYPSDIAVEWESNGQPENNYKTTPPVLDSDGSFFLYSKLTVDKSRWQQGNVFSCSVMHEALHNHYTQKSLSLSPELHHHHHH

CC[C@H](C)[C@H](NC(=O)[C@H](Cc1c[nH]c2ccccc12)NC(=O)CNC(=O)[C@H](C)NC(C)=O)C(=O)N[C@@H](CO)C(=O)N[C@H]1CSSC[C@@H](C(=O)N[C@@H](Cc2c[nH]c3ccccc23)C(=O)N2CCC[C@H]2C(=O)NCC(=O)NCC(=O)N[C@H](C(=O)NCC(=O)NCC(=O)NCC(=O)N[C@@H](CCCCNC(=O)c2ccc3c(c2)C(=O)OC32c3ccc(O)cc3Oc3cc(O)ccc32)C(N)=O)[C@@H](C)O)NC(=O)[C@H](C)NC(=O)[C@H](Cc2ccccc2)NC(=O)[C@H]([C@@H](C)O)NC(=O)[C@@H]2CCCN2C(=O)[C@@H]2CCCN2C(=O)CNC(=O)[C@H](C)NC1=O [SEQ ID NO: 056]
Protein ELISA (cMet-Fc fusion protein): 14.3 fold over background | WC ELISA [1]: 1.23 fold over background

GSMNMCDTTDEISPTCHPSAP (Synthetically generated cMet-binding peptide sequence) [SEQ ID NO: 378]
Protein ELISA (cMet-Fc fusion protein): 3.6 fold over background | WC ELISA [1]: 1.40 fold over background

CC(=O)N[C@@H](C)C(=O)N[C@@H](CCC(N)=O)C(=O)N[C@@H](CC(=O)O)C(=O)N[C@@H](CC(C)C)C(=O)N[C@@H](CCCCN)C(=O)N1CCC[C@H]1C(=O)N[C@@H](Cc1c[nH]c2ccccc12)C(=O)N[C@H](C(=O)N[C@@H](C)C(=O)NCC(=O)N[C@@H](Cc1c[nH]c2ccccc12)C(=O)N[C@@H](CCC(=O)O)C(=O)N1CCC[C@H]1C(=O)N1CCC[C@H]1C(=O)N[C@@H](Cc1c[nH]c2ccccc12)C(=O)N[C@@H](CC(C)C)C(=O)N[C@@H](Cc1c[nH]c2ccccc12)C(=O)N[C@H](C(=O)N[C@@H](CC(=O)O)C(=O)N[C@@H](CCCNC(=N)N)C(=O)NCC(=O)N1CCC[C@H]1C(=O)NCC(=O)NCC(=O)NCC(=O)N[C@@H](CCCCNC(=O)c1ccc2c(c1)C(=O)OC21c2ccc(O)cc2Oc2cc(O)ccc21)C(N)=O)[C@@H](C)O)[C@@H](C)O [SEQ ID NO: 461]
Protein ELISA (cMet-Fc fusion protein): 5.0 fold over background | WC ELISA [1]: 1.30 fold over background

GDSYNCSWDSKTFEVTCLYADP (Synthetically generated cMet-binding peptide sequence) [SEQ ID NO: 393]
Protein ELISA (cMet-Fc fusion protein): 8.4 fold over background | WC ELISA [1]: 1.20 fold over background

GDASMCYDGLALRWDQCWPHDP (Synthetically generated cMet-binding peptide sequence) [SEQ ID NO: 404]
Protein ELISA (cMet-Fc fusion protein): 3.4 fold over background | WC ELISA [1]: 1.30 fold over background

AGKQWCVVWEETCDQLGT (Synthetically generated cMet-binding peptide sequence) [SEQ ID NO: 039]
Protein ELISA (cMet-Fc fusion protein): 3.7 fold over background | WC ELISA [1]: 1.33 fold over background

AGYYGCKGPPTFECQWMGT (Synthetically generated cMet-binding peptide sequence) [SEQ ID NO: 049]
Protein ELISA (cMet-Fc fusion protein): 13.8 fold over background | WC ELISA [1]: 1.33 fold over background

AGETVCYWLNGWFCVDDGT (Synthetically generated cMet-binding peptide sequence) [SEQ ID NO: 073]
Protein ELISA (cMet-Fc fusion protein): 7.8 fold over background | WC ELISA [1]: 1.10 fold over background

GSAGWCYTMNYVDQLCTYMAP (Synthetically generated cMet-binding peptide sequence) [SEQ ID NO: 387]
Protein ELISA (cMet-Fc fusion protein): 3.7 fold over background | WC ELISA [1]: 1.43 fold over background

AQDPGFSKHSMGHGYPSKMNWG (Synthetically generated cMet-binding peptide sequence) [SEQ ID NO: 471]
Protein ELISA (cMet-Fc fusion protein): 3.7 fold over background | WC ELISA [1]: 1.27 fold over background

CC[C@H](C)[C@@H]1NC(=O)[C@@H](NC(=O)[C@H](Cc2c[nH]cn2)NC(=O)[C@@H](NC(=O)[C@H](Cc2c[nH]c3ccccc23)NC(=O)CNC(=O)[C@H](C)NC(C)=O)[C@@H](C)O)CSSC[C@@H](C(=O)N[C@H](C(=O)N2CCC[C@H]2C(=O)N[C@@H](CCSC)C(=O)NCC(=O)N[C@H](C(=O)NCC(=O)NCC(=O)NCC(=O)N[C@@H](CCCCNC(=O)c2ccc3c(c2)C(=O)OC32c3ccc(O)cc3Oc3cc(O)ccc32)C(N)=O)[C@@H](C)O)[C@@H](C)CC)NC(=O)[C@H](CCC(=O)O)NC(=O)[C@H](Cc2ccccc2)NC(=O)[C@H]([C@@H](C)O)NC(=O)[C@@H]2CCCN2C(=O)[C@@H]2CCCN2C(=O)CNC1=O [SEQ ID NO: 052]
Protein ELISA (cMet-Fc fusion protein): 8.0 fold over background | WC ELISA [1]: 1.30 fold over background

AGSTDCRGHPTFECWGWGT (Synthetically generated cMet-binding peptide sequence) [SEQ ID NO: 086]
Protein ELISA (cMet-Fc fusion protein): 5.2 fold over background | WC ELISA [1]: 1.30 fold over background

CSCC[C@H](NC(=O)[C@@H]1CCCN1C(=O)[C@H](CO)NC(=O)CNC(=O)[C@@H](NC(=O)[C@H](CCC(N)=O)NC(=O)[C@H](C)NC(C)=O)C(C)C)C(=O)N[C@@H](CC(C)C)C(=O)N1CCC[C@H]1C(=O)N[C@@H](CO)C(=O)N[C@@H](Cc1c[nH]c2ccccc12)C(=O)N[C@@H](Cc1ccccc1)C(=O)N[C@@H](CO)C(=O)N[C@@H](Cc1ccccc1)C(=O)N[C@@H](CCC(=O)O)C(=O)N[C@@H](C)C(=O)N[C@@H](CC(N)=O)C(=O)N[C@@H](Cc1c[nH]c2ccccc12)C(=O)N[C@@H](CO)C(=O)N[C@@H](CO)C(=O)NCC(=O)NCC(=O)NCC(=O)N[C@@H](CCCCNC(=O)c1ccc2c(c1)C(=O)OC21c2ccc(O)cc2Oc2cc(O)ccc21)C(N)=O [SEQ ID NO: 456]
Protein ELISA (cMet-Fc fusion protein): 7.0 fold over background | WC ELISA [1]: 1.30 fold over background

CC[C@H](C)[C@H](NC(=O)CNC(=O)[C@H](Cc1ccccc1)NC(=O)[C@H](Cc1c[nH]c2ccccc12)NC(=O)[C@H](CO)NC(=O)CNC(=O)[C@H](Cc1c[nH]c2ccccc12)NC(=O)[C@H](Cc1ccccc1)NC(=O)CNC(=O)[C@H](CC(=O)O)NC(=O)[C@@H](NC(=O)[C@H](Cc1ccccc1)NC(=O)[C@H](Cc1ccc(O)cc1)NC(=O)[C@H](CCC(=O)O)NC(=O)[C@H](CCCNC(=N)N)NC(=O)[C@H](CCC(=O)O)NC(=O)[C@H](Cc1c[nH]c2ccccc12)NC(=O)[C@H](CCC(=O)O)NC(=O)[C@H](CCC(N)=O)NC(=O)[C@H](C)NC(C)=O)C(C)C)C(=O)N1CCC[C@H]1C(=O)N[C@@H](Cc1c[nH]cn1)C(=O)NCC(=O)NCC(=O)NCC(=O)N[C@@H](CCCCNC(=O)c1ccc2c(c1)C(=O)OC21c2ccc(O)cc2Oc2cc(O)ccc21)C(N)=O [SEQ ID NO: 472]
Protein ELISA (cMet-Fc fusion protein): 3.7 fold over background | WC ELISA [1]: 1.80 fold over background

AGNYWCSGPPSFICHAVGT (Synthetically generated cMet-binding peptide sequence) [SEQ ID NO: 091]
Protein ELISA (cMet-Fc fusion protein): 8.9 fold over background | WC ELISA [1]: 1.27 fold over background

GSGDPCSPGPSINGHCSVMAP (Synthetically generated cMet-binding peptide sequence) [SEQ ID NO: 382]
Protein ELISA (cMet-Fc fusion protein): 4.5 fold over background | WC ELISA [1]: 1.33 fold over background

GSDMNCTVLAQDQIFCFREAP (Synthetically generated cMet-binding peptide sequence) [SEQ ID NO: 386]
Protein ELISA (cMet-Fc fusion protein): 3.0 fold over background | WC ELISA [1]: 1.37 fold over background

CC(=O)N[C@@H](C)C(=O)NCC(=O)N[C@@H](Cc1c[nH]c2ccccc12)C(=O)N[C@@H](Cc1ccccc1)C(=O)N[C@@H](CCC(N)=O)C(=O)N[C@H]1CSSC[C@@H](C(=O)N[C@@H](CCC(=O)O)C(=O)N[C@@H](CCCNC(=N)N)C(=O)N[C@@H](Cc2c[nH]cn2)C(=O)NCC(=O)N[C@H](C(=O)NCC(=O)NCC(=O)NCC(=O)N[C@@H](CCCCNC(=O)c2ccc3c(c2)C(=O)OC32c3ccc(O)cc3Oc3cc(O)ccc32)C(N)=O)[C@@H](C)O)NC(=O)[C@H](CCC(=O)O)NC(=O)[C@H](Cc2ccccc2)NC(=O)[C@H](CO)NC(=O)[C@@H]2CCCN2C(=O)[C@@H]2CCCN2C(=O)CNC(=O)[C@H](CCCCN)NC1=O [SEQ ID NO: 051]
Protein ELISA (cMet-Fc fusion protein): 5.4 fold over background | WC ELISA [1]: 1.33 fold over background

CC[C@H](C)[C@H](NC(=O)[C@H](CC(=O)O)NC(=O)[C@H](Cc1ccccc1)NC(=O)[C@H](Cc1ccccc1)NC(=O)[C@H](CCC(=O)O)NC(=O)[C@H](Cc1c[nH]c2ccccc12)NC(=O)[C@@H](NC(=O)[C@H](CCC(=O)O)NC(=O)[C@H](CCCCN)NC(=O)[C@H](CCC(N)=O)NC(=O)[C@H](C)NC(C)=O)[C@@H](C)O)C(=O)N[C@H](C(=O)N[C@@H](Cc1ccc(O)cc1)C(=O)NCC(=O)N[C@@H](CO)C(=O)NCC(=O)N[C@@H](Cc1c[nH]c2ccccc12)C(=O)N[C@@H](CCCCN)C(=O)N[C@@H](Cc1ccccc1)C(=O)N[C@@H](CC(N)=O)C(=O)N[C@@H](CO)C(=O)N1CCC[C@H]1C(=O)NCC(=O)NCC(=O)NCC(=O)N[C@@H](CCCCNC(=O)c1ccc2c(c1)C(=O)OC21c2ccc(O)cc2Oc2cc(O)ccc21)C(N)=O)C(C)C [SEQ ID NO: 466]
Protein ELISA (cMet-Fc fusion protein): 4.0 fold over background | WC ELISA [1]: 1.23 fold over background

AGTMYCLGPPTFICQQYGT (Synthetically generated cMet-binding peptide sequence) [SEQ ID NO: 084]
Protein ELISA (cMet-Fc fusion protein): 13.0 fold over background | WC ELISA [1]: 1.23 fold over background

AGWTWCDLSMMSCIFHGT (Synthetically generated cMet-binding peptide sequence) [SEQ ID NO: 025]
Protein ELISA (cMet-Fc fusion protein): 3.2 fold over background | WC ELISA [1]: 1.37 fold over background

AGTLSCSEEYKSCQLQGT (Synthetically generated cMet-binding peptide sequence) [SEQ ID NO: 027]
Protein ELISA (cMet-Fc fusion protein): 3.6 fold over background | WC ELISA [1]: 1.30 fold over background

AQGIAWQLEWSYMPQSPPSFDR (Synthetically generated cMet-binding peptide sequence) [SEQ ID NO: 495]
Protein ELISA (cMet-Fc fusion protein): 4.5 fold over background | WC ELISA [1]: 1.17 fold over background
